# Laboratory results as given in patent publication US20080241130A1 (published 2008).
# What was measured:
# [1] = biological target: T1, human IL-17R.Fc (human); test: indirect sandwich ELISA; receptor.Fc captured on goat anti-human IgG-Fc, biotinylated cytokine titrated
# T1 construct: also called hIL-17R.Fc; IL-17RA.Fc
# Method: (§1) Binding of human IL-17F, hIL-17A or hIL-17F/IL-17A to human IL-17R.Fc (hIL-17R.Fc) and IL-17RC.Fc (hIL-17RC.Fc) was determined by indirect sandwich ELISA. ELISA plates (Costar, Cambridge Mass.) were coated overnight with 10 μg/ml goat anti-human IgG-Fc (Bethyl Laboratories, Montgomery, Tex.). Human IL-17R.Fc or hIL17-RC.Fc was then loaded at 6 ng/ml and 30 ng/ml, respectively, for 3 hours, followed by serial dilutions of biotinylated IL-17A, IL-17F or IL-17F/IL-17A for 2 hours. The plate was developed with Poly-HRP Streptavidin (Pierce Biotechnology, Rockford, Ill.) and TMB Substrate (KPL Labs, Gaithersburg, Md.).
# (§2) The binding of hIL-17F, hIL-17A or hIL-17F/IL-17A to hIL-17R.Fc and/or hIL-17RC.Fc was evaluated by indirect sandwich ELISA. All three cytokines bound to hIL-17RC.Fc with approximately the same EC₅₀ of 18-25 ng/ml (FIG. 1B). However, the EC₅₀ for the three cytokines were different for binding to hIL-17R.Fc. The tightest binding occurred between hIL-17A and hIL-17R.Fc with an EC₅₀ of 25 ng/ml. Human IL-17F bound weakly to hIL-17R.Fc with an EC₅₀ greater than 2000 ng/ml.
# [2] = biological target: T2, human IL-17RC.Fc (human); test: indirect sandwich ELISA: IL-17RC.Fc captured on goat anti-human IgG-Fc, biotinylated cytokine titrated, Poly-HRP streptavidin
# T2 construct: also called hIL-17RC.Fc
# T2 sequence (chain, as listed by the source limits assumed): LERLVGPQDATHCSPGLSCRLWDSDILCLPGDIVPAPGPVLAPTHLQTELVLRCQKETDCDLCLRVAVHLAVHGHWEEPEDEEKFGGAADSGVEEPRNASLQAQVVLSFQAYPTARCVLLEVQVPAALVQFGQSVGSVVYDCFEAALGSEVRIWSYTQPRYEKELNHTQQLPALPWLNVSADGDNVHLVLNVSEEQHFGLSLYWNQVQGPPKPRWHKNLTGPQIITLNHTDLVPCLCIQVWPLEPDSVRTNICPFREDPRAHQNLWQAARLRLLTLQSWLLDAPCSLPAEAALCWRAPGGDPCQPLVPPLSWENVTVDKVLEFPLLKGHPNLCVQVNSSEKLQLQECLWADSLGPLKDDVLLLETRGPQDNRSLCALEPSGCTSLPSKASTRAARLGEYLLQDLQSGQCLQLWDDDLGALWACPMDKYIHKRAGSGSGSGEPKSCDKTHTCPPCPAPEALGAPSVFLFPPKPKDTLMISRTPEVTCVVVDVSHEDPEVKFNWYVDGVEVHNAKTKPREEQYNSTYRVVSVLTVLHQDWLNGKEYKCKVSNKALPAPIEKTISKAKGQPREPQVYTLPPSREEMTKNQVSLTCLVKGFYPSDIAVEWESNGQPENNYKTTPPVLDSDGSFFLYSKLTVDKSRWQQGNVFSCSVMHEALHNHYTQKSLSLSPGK
# Method: as §1, §2
# T1 sequence (chain, as listed by the source limits assumed): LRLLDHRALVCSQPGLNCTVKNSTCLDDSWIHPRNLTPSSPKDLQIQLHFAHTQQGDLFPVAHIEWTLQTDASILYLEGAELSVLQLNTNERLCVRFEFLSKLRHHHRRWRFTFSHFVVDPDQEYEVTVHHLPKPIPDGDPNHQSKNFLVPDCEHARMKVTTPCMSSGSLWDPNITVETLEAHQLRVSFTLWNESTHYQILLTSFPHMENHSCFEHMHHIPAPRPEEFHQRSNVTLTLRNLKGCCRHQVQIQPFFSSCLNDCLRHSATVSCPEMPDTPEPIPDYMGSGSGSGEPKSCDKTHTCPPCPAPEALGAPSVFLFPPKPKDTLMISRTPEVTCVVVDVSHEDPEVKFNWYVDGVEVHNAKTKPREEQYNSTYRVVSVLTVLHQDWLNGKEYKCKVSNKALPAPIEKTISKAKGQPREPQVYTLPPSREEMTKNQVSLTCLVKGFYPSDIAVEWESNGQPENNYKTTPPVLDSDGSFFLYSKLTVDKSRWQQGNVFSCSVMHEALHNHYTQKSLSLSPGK
binder,measurement,setting,value
"human IL-17F (ligand, biotinylated in the ELISA (FluoReporter Mini-biotin-XX kit); sites not stated, Homodimer; also called hIL-17F) RKIPKVGHTFFQKPESCPPVPGGSMKLDIGIINENQRVSMSRNIESRSTSPWNYTVTWDPNRYPSEVVQAQCRNLGCINAQGKEDISMNSVPIQQETLVVRRKHQGCSVSFQLEKVLVTVGCTCVTPVIHHVQ",EC50,[1],> 2 µg/mL
same,EC50 (read off the curve),[2],~0.02 µg/mL
